Columns and labels:
[1] = target: Fc part of the IgM protomer left after IgMBRAZOR cleavage (two mu chain fragments from Ala344 to the C-terminus) (human); assay: SEC + native MS; online SEC-Orbitrap-based CDMS of IgM co-expressed with the J-chain, undigested or digested with IgMBRAZOR; sample in PBS, 0.5 μg injected; mobile phase 100 mM ammonium acetate pH 6.8; the oligomer is held by disulfide bonds
[2] = target: Recombinant anti-StrepTag IgM protomer (two mu heavy chains and two kappa light chains); assay: as above

Fc part of the IgM protomer left after IgMBRAZOR cleavage (two mu chain fragments from Ala344 to the C-terminus) (domain or fragment)
stoichiometry N [1]: 5

B1: Recombinant anti-StrepTag IgM protomer (two mu heavy chains and two kappa light chains) (antibody, V domains shown)
VH: EVQLEQSGPELVKPGASVKMSCKASGYTFTNYYMKWVKQSHGKSLEWIGDLNPNNGDTFYNQKFKGKATLTVDKSSNTAYMQLNSLTSEDSAVYYCARTGRYEENAMDYWGQGTSVTVSS
VL: ELVMTQSPASLAVSLGQRATISCRASESVDSYGKSFMHWYQLKPGQPPKLLIYRASNLESGVPARFSGSGSRTDFTLTIDPVEADDAATYYCQQNNEDPWTFGGGTKLEIK
stoichiometry N [2]: 5
